Assay results: patent publication US20170240642A1 (ALLIGATOR BIOSCIENCE, published 2017)
Residue numbers refer to the chain shown, from its start.

B1: Antibody clone F6 (antibody, human IgG1, lambda, V domains shown)
VH: EVQLLESGGGLVQPGGSLRLSCAASGFTFSTYGMHWVRQAPGKGLEWLSYISGGSSYIFYADSVRGRFTISRDNSENALYLQMNSLRAEDTAVYYCARILRGGSGMDLWGQGTLVTVSS
VL: QSVLTQPPSASGTPGQRVTISCTGSSSNIGAGYDVYWYQQLPGTAPKLLIYRNINRPSGVPDRFSGSKSGTSASLAISGLRSEDEADYYCAAWDGSLLGLVFGGGTKLTVLG
notes: Tested as purified antibody
B2: Antibody clone F9 (antibody, human IgG1, lambda, V domains shown)
VH: B1 VH
VL: B1 VL with D34G, R52G, S96T, L98T, V101L
notes: Tested as purified antibody

Target: T1, CD40hfc (R&Dsystems, USA) (human, UniProt P25942 21-193)
T1 construct: Bought reagent, amine-coupled to the Biacore chip; also called immobilized CD40 receptor; not shown: Fc part of the bought CD40hfc
T1 sequence (P25942 21-193): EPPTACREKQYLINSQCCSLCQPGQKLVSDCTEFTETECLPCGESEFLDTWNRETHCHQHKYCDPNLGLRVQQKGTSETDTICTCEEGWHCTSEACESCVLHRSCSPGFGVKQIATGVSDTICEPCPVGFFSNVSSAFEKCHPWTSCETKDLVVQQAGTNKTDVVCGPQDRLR
Assay: SPR, Biacore 3000; CD40hfc amine-coupled to chip, antibody as analyte; 37 C, pH 7.3
Description: The affinity measures of purified antibodies by surface plasmon resonance using the Biacore 3000 instrument was performed according to manufacturer's protocols.
The CD40hfc (R&Dsystems, USA) was immobilized to the BIAcore sensorchip, CMS, using conventional amine coupling. The anti-CD40 antibodies of the invention, (serially diluted 1/3 from 1-0.012 nM) were analysed for binding in HBS-P (GE, BR-1003-68) at a flow rate of 30 μl/min at 37° C. and pH 7.3. The association was followed for 3 minutes and the dissociation for 10 minutes. Regeneration was performed twice using 50 mM NaOH for 30 seconds. The kinetic parameters and the affinity constants were calculated using BIAevaluation 4.1 software.

Row | Binder | koff [s⁻¹]
1 | B1 | 0.00032
2 | B2 | 0.00012
